Biological target: neonatal FcR (FcRn) (UniProt P55899)
Test: BLI + SPR

UniProt P55899, sequence (P55899 24-365): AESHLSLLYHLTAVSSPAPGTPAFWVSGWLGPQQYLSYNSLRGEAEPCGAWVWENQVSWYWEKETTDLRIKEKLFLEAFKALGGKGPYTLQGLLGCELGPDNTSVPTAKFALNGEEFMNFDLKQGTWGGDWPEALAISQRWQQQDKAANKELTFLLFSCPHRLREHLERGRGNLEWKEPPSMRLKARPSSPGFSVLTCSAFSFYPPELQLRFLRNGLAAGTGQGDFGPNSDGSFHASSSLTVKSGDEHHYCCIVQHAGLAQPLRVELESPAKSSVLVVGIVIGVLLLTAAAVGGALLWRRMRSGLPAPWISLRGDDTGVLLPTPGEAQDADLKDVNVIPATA

Row | Relative FcRn affinity (%) | Substance
1 | 104% | BAT1806/BIIB800 (antibody)
2 | 100% | forced deamidation TCZ (antibody)
3 | 96% | reference tocilizumab (antibody)
